Experimental findings from patent publication US20250206837A1 (ELIXIRON IMMUNOTHERAPEUTICS HONG KONG, published 2025) are described below.

Experiment [1] addresses T1, full-length human CD36-Flag overexpressed on stable F293 cells (human, UniProt P16671 2-472).
T1 construct: Gene segment from Sino Biological; also called F293/hCD36; hCD36; not shown: Flag tag
Kind of experiment: flow cytometry, F293 cells overexpressing human CD36. An excerpt: (§1) After washing with FACS buffer (2% FBS in PBS), the cells were stained with anti-human IgG-Alexa Fluor 647 and analyzed by Attune NxT Flow Cytometer (Thermo Scientific).
Background: Flow cytometry measures light scatter and fluorescence of single cells or particles in a stream.

Experiment [2] addresses T2, mouse CD36-His overexpressed on stable F293 cells (mouse, UniProt Q08857 1-472).
T2 construct: Gene segment from Sino Biological; also called F293/mCD36; mCD36; not shown: His tag
In words: flow cytometry, F293 cells overexpressing mouse CD36.
Description: as §1

In experiment [3] the target is T3, rhesus CD36-His overexpressed on stable F293 cells (rhesus, UniProt P16671 2-472 (human entry)).
T3 construct: Gene segment from Sino Biological; also called F293/rhesusCD36; not shown: His tag
Kind of experiment: flow cytometry, F293 cells overexpressing rhesus CD36.
Description: as §1

Experiment [4] concerns the target T4, Recombinant His-tagged human CD36.ECD protein (Sino Biological) (human, UniProt P16671 30-439).
T4 construct: Bought protein; also called hCD36.ECD; hCD36; not shown: His tag
Kind of experiment: BLI (Octet), antibody on AHC sensor, His-tagged hCD36.ECD in solution, 1:1 fit. The procedure:
BLI assay materials and method: Kinetic rate constants, ka and kd, for binding of the anti-CD36 antibodies to human CD36 were measured by Bio-Layer Interferometry (BLI) (ForteBio Octet RED96). […] Rate constants were calculated by curve fitting analyses (1:1 Langmuir model) of binding response with a 2.5-minute association and 5-minute dissociation interaction time.

“And” between values parts separate entries of the source, which are not always exact repeats. Equal entries are not always repeated.

For orientation: EC50 means the concentration at which the effect is half-maximal. Read a high EC50 as a less potent agent. By Kd is commonly meant the free concentration of one partner at which half of the binding sites on the other are occupied at equilibrium, for simple one-to-one binding. As usually defined, the koff is a measure of how fast the partners let go of each other. As usually defined, the kon is the second-order rate constant of association.

T4 sequence (P16671 30-439 limits assumed): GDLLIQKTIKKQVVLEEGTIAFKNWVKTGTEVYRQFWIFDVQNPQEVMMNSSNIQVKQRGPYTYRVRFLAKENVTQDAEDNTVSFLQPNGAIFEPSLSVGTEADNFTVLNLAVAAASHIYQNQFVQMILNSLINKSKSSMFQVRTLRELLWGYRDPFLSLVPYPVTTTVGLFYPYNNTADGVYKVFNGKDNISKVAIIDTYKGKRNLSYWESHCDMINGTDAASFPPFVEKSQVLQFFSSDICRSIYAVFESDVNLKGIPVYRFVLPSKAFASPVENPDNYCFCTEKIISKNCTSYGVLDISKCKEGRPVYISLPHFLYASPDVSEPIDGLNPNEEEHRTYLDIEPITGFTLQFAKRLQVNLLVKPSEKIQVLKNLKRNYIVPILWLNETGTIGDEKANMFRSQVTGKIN
T3 sequence (P16671 other isoform, or with tags, fused parts or gaps): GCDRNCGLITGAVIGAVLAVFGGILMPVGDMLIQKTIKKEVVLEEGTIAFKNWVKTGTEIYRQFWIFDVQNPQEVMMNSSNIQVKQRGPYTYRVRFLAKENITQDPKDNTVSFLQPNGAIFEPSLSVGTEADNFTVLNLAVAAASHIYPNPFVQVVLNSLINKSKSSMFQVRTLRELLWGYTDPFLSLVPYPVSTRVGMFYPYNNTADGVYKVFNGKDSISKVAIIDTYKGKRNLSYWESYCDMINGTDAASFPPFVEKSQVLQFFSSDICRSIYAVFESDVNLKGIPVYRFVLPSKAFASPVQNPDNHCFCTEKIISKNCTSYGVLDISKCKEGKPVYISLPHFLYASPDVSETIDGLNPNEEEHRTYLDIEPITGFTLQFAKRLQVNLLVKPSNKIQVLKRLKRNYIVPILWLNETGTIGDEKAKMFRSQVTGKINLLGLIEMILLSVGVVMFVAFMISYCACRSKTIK
T1 sequence (P16671 2-472): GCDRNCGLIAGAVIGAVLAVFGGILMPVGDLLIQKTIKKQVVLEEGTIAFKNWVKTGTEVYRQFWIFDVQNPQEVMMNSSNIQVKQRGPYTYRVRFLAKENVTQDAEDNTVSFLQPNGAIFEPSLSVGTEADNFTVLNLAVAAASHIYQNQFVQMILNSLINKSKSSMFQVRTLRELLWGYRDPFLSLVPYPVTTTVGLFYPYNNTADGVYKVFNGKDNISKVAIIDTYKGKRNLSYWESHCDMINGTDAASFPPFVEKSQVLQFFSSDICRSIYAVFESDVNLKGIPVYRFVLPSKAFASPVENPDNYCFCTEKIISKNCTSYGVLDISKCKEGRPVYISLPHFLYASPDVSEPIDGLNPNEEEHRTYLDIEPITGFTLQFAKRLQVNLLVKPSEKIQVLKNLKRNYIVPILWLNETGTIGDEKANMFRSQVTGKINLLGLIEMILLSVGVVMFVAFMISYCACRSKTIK
T2 sequence (Q08857 whole entry): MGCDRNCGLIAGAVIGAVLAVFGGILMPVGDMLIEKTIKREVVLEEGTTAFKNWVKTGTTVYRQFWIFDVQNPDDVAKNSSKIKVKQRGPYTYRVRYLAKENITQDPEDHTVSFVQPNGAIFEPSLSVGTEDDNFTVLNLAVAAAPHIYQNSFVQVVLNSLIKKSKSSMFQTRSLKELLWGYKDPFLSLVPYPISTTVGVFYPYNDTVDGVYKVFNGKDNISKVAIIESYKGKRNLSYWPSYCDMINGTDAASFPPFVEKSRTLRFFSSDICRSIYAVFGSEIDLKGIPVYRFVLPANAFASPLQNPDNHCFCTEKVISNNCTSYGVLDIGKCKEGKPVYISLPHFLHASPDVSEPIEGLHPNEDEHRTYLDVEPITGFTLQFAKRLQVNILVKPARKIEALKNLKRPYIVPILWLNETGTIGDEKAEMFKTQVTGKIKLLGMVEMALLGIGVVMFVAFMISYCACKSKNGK

B1: 117_57DE (antibody, V domains shown)
VH: EVQLVESGGGLVQPGGSLRLSCAASGFTISSFGIHWVRQAPGKGLEWVAWIAPYGGDEYYADSVKGRFTISADTSKNTAYLQMNSLRAEDTAVYYCARSFFGYFDYWGQGTLVTVSS
VL: DIQMTQSPSSLSASVGDRVTITCRASQDVSNWVAWYQQKPGKAPKLLISYATSLYSGVPSRFSGSGSGTDFTLTISSLQPEDFATYYCQQHSNAPLTFGQGTKVEIKR
notes: full-length IgG, human kappa
Turning to B1, the EC50 is 0.129 mg/L in experiment [1], 0.447 mg/L in experiment [2] and 0.529 mg/L in experiment [3].

B2: 117 (IgG1) (antibody)
heavy: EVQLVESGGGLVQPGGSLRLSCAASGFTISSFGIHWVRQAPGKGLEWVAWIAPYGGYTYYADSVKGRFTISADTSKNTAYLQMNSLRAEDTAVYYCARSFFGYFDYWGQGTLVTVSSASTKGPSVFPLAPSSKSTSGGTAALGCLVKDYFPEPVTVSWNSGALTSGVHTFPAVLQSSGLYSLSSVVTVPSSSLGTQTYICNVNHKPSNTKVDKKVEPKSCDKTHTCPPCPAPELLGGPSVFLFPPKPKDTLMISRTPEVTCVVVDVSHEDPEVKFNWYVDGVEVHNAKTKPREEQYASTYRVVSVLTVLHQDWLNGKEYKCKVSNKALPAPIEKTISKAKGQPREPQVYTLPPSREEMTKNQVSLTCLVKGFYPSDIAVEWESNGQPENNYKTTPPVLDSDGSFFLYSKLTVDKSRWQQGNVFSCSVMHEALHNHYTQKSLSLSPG
light: DIQMTQSPSSLSASVGDRVTITCRASQDVSNWVAWYQQKPGKAPKLLISYATSLYSGVPSRFSGSGSGTDFTLTISSLQPEDFATYYCQQHSNAPLTFGQGTKVEIKRTVAAPSVFIFPPSDEQLKSGTASVVCLLNNFYPREAKVQWKVDNALQSGNSQESVTEQDSKDSTYSLSSTLTLSKADYEKHKVYACEVTHQGLSSPVTKSFNRGEC
notes: Human IgG1-N297A, kappa
As for B2, in experiment [4], the Kd was 4.79 nM and 6.72 nM; the koff is 0.00213 s⁻¹ and 0.00235 s⁻¹; the kon is 445000 M⁻¹ s⁻¹ and 350000 M⁻¹ s⁻¹.

B3: 117 (IgG4) (antibody)
heavy: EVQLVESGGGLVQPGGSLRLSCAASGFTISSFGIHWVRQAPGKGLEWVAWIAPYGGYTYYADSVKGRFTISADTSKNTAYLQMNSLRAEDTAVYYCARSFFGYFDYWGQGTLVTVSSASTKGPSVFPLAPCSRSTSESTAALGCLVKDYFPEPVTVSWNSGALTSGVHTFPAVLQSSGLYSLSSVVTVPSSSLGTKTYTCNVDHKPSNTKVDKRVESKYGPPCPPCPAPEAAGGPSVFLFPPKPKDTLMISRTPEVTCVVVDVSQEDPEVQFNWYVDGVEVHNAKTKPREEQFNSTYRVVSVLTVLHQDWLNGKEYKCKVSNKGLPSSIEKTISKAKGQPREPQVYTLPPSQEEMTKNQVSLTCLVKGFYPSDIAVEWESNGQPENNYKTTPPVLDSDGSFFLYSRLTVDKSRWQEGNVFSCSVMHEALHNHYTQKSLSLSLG
light: DIQMTQSPSSLSASVGDRVTITCRASQDVSNWVAWYQQKPGKAPKLLISYATSLYSGVPSRFSGSGSGTDFTLTISSLQPEDFATYYCQQHSNAPLTFGQGTKVEIKRTVAAPSVFIFPPSDEQLKSGTASVVCLLNNFYPREAKVQWKVDNALQSGNSQESVTEQDSKDSTYSLSSTLTLSKADYEKHKVYACEVTHQGLSSPVTKSFNRGEC
notes: Human IgG4-S228P/F234A/L235A, kappa
As for B3, in experiment [4], the Kd was 6.49 nM, the koff was 0.0025 s⁻¹ and the kon came out at 386000 M⁻¹ s⁻¹.

B4: 117_DA57D (IgG4) (antibody, V domains shown)
VH: EVQLVESGGGLVQPGGSLRLSCAASGFTIDAFGIHWVRQAPGKGLEWVAWIAPYGGDTYYADSVKGRFTISADTSKNTAYLQMNSLRAEDTAVYYCARSFFGYFDYWGQGTLVTVSS
VL: DIQMTQSPSSLSASVGDRVTITCRASQDVSNWVAWYQQKPGKAPKLLISYATSLYSGVPSRFSGSGSGTDFTLTISSLQPEDFATYYCQQHSNAPLTFGQGTKVEIKR
For B4, in experiment [4], the Kd was 2.64 nM, the koff is 0.000838 s⁻¹ and the kon was 317000 M⁻¹ s⁻¹.

B5: 117_DA57E (IgG4) (antibody, V domains shown)
VH: EVQLVESGGGLVQPGGSLRLSCAASGFTIDAFGIHWVRQAPGKGLEWVAWIAPYGGETYYADSVKGRFTISADTSKNTAYLQMNSLRAEDTAVYYCARSFFGYFDYWGQGTLVTVSS
VL: DIQMTQSPSSLSASVGDRVTITCRASQDVSNWVAWYQQKPGKAPKLLISYATSLYSGVPSRFSGSGSGTDFTLTISSLQPEDFATYYCQQHSNAPLTFGQGTKVEIKR
notes: Human IgG4-S228P-FALA, kappa
As to B5, in experiment [4], the Kd amounted to 2.52 nM, the koff is 0.000803 s⁻¹ and the kon is 319000 M⁻¹ s⁻¹.

B6: 117_30DE (IgG4) (antibody, V domains shown)
VH: EVQLVESGGGLVQPGGSLRLSCAASGFTIDSFGIHWVRQAPGKGLEWVAWIAPYGGETYYADSVKGRFTISADTSKNTAYLQMNSLRAEDTAVYYCARSFFGYFDYWGQGTLVTVSS
VL: DIQMTQSPSSLSASVGDRVTITCRASQDVSNWVAWYQQKPGKAPKLLISYATSLYSGVPSRFSGSGSGTDFTLTISSLQPEDFATYYCQQHSNAPLTFGQGTKVEIKR
notes: Human IgG4-S228P-FALA, kappa
Regarding B6, in experiment [4], the equilibrium dissociation constant (Kd) was 3.09 nM, the koff stood at 0.000981 s⁻¹ and the kon turned out to be 317000 M⁻¹ s⁻¹.

B7: 117_57E (IgG1) (antibody)
heavy: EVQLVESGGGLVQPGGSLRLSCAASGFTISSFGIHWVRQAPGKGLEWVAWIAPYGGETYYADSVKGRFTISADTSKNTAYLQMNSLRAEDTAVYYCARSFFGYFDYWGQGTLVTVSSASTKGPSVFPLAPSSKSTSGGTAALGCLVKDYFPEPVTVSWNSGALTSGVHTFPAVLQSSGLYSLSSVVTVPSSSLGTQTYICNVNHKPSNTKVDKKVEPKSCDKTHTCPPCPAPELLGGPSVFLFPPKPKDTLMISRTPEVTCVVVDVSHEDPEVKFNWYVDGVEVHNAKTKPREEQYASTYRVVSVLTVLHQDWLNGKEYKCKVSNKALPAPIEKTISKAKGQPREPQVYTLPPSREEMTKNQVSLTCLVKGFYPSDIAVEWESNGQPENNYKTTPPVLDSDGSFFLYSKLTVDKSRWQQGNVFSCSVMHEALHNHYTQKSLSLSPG
light: DIQMTQSPSSLSASVGDRVTITCRASQDVSNWVAWYQQKPGKAPKLLISYATSLYSGVPSRFSGSGSGTDFTLTISSLQPEDFATYYCQQHSNAPLTFGQGTKVEIKRTVAAPSVFIFPPSDEQLKSGTASVVCLLNNFYPREAKVQWKVDNALQSGNSQESVTEQDSKDSTYSLSSTLTLSKADYEKHKVYACEVTHQGLSSPVTKSFNRGEC
Consider B7, for which, in experiment [4], the Kd was 4.93 nM, the koff was 0.00182 s⁻¹ and the kon came to 370000 M⁻¹ s⁻¹.

B8: 117_57D (IgG4) (antibody)
heavy: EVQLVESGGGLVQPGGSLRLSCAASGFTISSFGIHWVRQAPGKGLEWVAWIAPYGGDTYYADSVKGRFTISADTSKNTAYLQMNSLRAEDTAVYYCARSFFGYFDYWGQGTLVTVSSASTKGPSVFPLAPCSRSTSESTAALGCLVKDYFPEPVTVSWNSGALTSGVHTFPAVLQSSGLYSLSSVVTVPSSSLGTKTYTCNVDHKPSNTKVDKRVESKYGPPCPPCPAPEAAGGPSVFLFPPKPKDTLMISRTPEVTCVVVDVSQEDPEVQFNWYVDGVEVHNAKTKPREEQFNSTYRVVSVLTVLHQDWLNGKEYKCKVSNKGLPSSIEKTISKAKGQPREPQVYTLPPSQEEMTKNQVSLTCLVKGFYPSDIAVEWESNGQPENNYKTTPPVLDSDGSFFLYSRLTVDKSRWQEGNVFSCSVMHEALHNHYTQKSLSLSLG
light: DIQMTQSPSSLSASVGDRVTITCRASQDVSNWVAWYQQKPGKAPKLLISYATSLYSGVPSRFSGSGSGTDFTLTISSLQPEDFATYYCQQHSNAPLTFGQGTKVEIKRTVAAPSVFIFPPSDEQLKSGTASVVCLLNNFYPREAKVQWKVDNALQSGNSQESVTEQDSKDSTYSLSSTLTLSKADYEKHKVYACEVTHQGLSSPVTKSFNRGEC
notes: Human IgG4-S228P-FALA, kappa
On to B8, for which, in experiment [4], the Kd stood at 4.96 nM, the koff is 0.00167 s⁻¹ and the kon worked out at 336000 M⁻¹ s⁻¹.

B9: 117_31A (IgG1) (antibody)
heavy: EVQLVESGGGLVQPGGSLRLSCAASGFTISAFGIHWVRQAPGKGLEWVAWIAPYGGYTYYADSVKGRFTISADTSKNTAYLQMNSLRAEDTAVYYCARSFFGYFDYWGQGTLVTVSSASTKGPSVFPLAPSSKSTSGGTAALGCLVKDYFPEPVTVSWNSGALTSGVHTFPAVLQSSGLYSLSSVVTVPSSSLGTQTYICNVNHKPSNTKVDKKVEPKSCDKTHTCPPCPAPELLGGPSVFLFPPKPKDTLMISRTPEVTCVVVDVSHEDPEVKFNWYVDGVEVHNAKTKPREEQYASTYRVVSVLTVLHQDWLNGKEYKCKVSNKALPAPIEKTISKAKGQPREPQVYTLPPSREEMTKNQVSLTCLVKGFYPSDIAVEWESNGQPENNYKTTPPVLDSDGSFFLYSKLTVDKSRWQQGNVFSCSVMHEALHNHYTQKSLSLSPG
light: DIQMTQSPSSLSASVGDRVTITCRASQDVSNWVAWYQQKPGKAPKLLISYATSLYSGVPSRFSGSGSGTDFTLTISSLQPEDFATYYCQQHSNAPLTFGQGTKVEIKRTVAAPSVFIFPPSDEQLKSGTASVVCLLNNFYPREAKVQWKVDNALQSGNSQESVTEQDSKDSTYSLSSTLTLSKADYEKHKVYACEVTHQGLSSPVTKSFNRGEC
Take B9: in experiment [4], the Kd turned out to be 4.05 nM, the koff is 0.00182 s⁻¹ and the kon was found to be 449000 M⁻¹ s⁻¹.

B10: 117_31A (IgG4) (antibody)
heavy: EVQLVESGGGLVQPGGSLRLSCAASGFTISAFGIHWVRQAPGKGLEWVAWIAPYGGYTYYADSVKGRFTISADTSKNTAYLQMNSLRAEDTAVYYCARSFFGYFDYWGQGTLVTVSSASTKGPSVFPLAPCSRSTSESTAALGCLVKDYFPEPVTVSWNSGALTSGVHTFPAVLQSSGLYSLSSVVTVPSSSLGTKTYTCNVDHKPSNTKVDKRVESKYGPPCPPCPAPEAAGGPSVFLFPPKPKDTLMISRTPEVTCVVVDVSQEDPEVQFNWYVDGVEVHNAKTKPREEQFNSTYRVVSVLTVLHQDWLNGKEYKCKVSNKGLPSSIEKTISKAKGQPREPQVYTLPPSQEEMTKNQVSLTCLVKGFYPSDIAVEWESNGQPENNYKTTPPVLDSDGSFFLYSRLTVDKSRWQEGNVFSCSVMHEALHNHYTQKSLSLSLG
light: DIQMTQSPSSLSASVGDRVTITCRASQDVSNWVAWYQQKPGKAPKLLISYATSLYSGVPSRFSGSGSGTDFTLTISSLQPEDFATYYCQQHSNAPLTFGQGTKVEIKRTVAAPSVFIFPPSDEQLKSGTASVVCLLNNFYPREAKVQWKVDNALQSGNSQESVTEQDSKDSTYSLSSTLTLSKADYEKHKVYACEVTHQGLSSPVTKSFNRGEC
B10: in experiment [4], the Kd is 4.32 nM, the koff came to 0.00205 s⁻¹ and the kon was determined as 475000 M⁻¹ s⁻¹.

B11: 117_57E (IgG4) (antibody)
heavy: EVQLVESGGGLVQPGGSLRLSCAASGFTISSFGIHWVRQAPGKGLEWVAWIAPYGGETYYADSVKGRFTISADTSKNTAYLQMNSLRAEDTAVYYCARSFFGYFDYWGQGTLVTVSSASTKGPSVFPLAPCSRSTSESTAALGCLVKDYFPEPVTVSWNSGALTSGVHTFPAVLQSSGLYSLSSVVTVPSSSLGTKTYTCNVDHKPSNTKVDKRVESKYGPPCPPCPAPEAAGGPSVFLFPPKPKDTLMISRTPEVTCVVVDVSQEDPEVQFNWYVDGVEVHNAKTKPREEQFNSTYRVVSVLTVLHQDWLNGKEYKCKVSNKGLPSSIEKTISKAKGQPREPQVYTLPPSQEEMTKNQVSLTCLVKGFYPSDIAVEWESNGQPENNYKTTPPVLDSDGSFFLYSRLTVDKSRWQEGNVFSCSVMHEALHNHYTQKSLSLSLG
light: DIQMTQSPSSLSASVGDRVTITCRASQDVSNWVAWYQQKPGKAPKLLISYATSLYSGVPSRFSGSGSGTDFTLTISSLQPEDFATYYCQQHSNAPLTFGQGTKVEIKRTVAAPSVFIFPPSDEQLKSGTASVVCLLNNFYPREAKVQWKVDNALQSGNSQESVTEQDSKDSTYSLSSTLTLSKADYEKHKVYACEVTHQGLSSPVTKSFNRGEC
notes: Human IgG4-S228P-FALA, kappa
On to B11, for which, in experiment [4], the Kd turned out to be 5.28 nM, the koff was determined as 0.00171 s⁻¹ and the kon amounted to 325000 M⁻¹ s⁻¹.

B12: 117_57D (IgG1) (antibody)
heavy: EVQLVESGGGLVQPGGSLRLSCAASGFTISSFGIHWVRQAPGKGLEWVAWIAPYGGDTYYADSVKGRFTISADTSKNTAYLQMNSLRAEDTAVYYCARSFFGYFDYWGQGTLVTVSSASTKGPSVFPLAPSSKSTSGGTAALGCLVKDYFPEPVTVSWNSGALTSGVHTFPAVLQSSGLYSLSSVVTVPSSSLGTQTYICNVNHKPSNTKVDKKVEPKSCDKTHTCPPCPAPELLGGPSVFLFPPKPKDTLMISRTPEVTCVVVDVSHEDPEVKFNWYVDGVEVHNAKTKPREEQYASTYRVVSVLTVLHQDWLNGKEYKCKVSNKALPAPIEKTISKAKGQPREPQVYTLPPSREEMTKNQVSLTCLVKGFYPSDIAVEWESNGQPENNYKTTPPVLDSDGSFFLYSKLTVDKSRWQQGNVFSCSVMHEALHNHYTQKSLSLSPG
light: DIQMTQSPSSLSASVGDRVTITCRASQDVSNWVAWYQQKPGKAPKLLISYATSLYSGVPSRFSGSGSGTDFTLTISSLQPEDFATYYCQQHSNAPLTFGQGTKVEIKRTVAAPSVFIFPPSDEQLKSGTASVVCLLNNFYPREAKVQWKVDNALQSGNSQESVTEQDSKDSTYSLSSTLTLSKADYEKHKVYACEVTHQGLSSPVTKSFNRGEC
In the case of B12, in experiment [4], the Kd worked out at 4.69 nM, the koff was determined as 0.00175 s⁻¹ and the kon was 373000 M⁻¹ s⁻¹.

B13: 117_57EE (IgG1) (antibody, V domains shown)
VH: EVQLVESGGGLVQPGGSLRLSCAASGFTISSFGIHWVRQAPGKGLEWVAWIAPYGGEEYYADSVKGRFTISADTSKNTAYLQMNSLRAEDTAVYYCARSFFGYFDYWGQGTLVTVSS
VL: DIQMTQSPSSLSASVGDRVTITCRASQDVSNWVAWYQQKPGKAPKLLISYATSLYSGVPSRFSGSGSGTDFTLTISSLQPEDFATYYCQQHSNAPLTFGQGTKVEIKR
Regarding B13, in experiment [4], the Kd was found to be 4.27 nM, the koff amounted to 0.00155 s⁻¹ and the on-rate constant (kon) worked out at 364000 M⁻¹ s⁻¹.

B14: 117_54E (IgG1) (antibody, V domains shown)
VH: EVQLVESGGGLVQPGGSLRLSCAASGFTISSFGIHWVRQAPGKGLEWVAWIAPEGGYTYYADSVKGRFTISADTSKNTAYLQMNSLRAEDTAVYYCARSFFGYFDYWGQGTLVTVSS
VL: DIQMTQSPSSLSASVGDRVTITCRASQDVSNWVAWYQQKPGKAPKLLISYATSLYSGVPSRFSGSGSGTDFTLTISSLQPEDFATYYCQQHSNAPLTFGQGTKVEIKR
For B14, in experiment [4], the Kd turned out to be 4.16 nM, the koff is 0.00407 s⁻¹ and the kon was 978000 M⁻¹ s⁻¹.

B15: 117_30AA (IgG4) (antibody, V domains shown)
VH: EVQLVESGGGLVQPGGSLRLSCAASGFTIAAFGIHWVRQAPGKGLEWVAWIAPYGGYTYYADSVKGRFTISADTSKNTAYLQMNSLRAEDTAVYYCARSFFGYFDYWGQGTLVTVSS
VL: DIQMTQSPSSLSASVGDRVTITCRASQDVSNWVAWYQQKPGKAPKLLISYATSLYSGVPSRFSGSGSGTDFTLTISSLQPEDFATYYCQQHSNAPLTFGQGTKVEIKR
notes: Human IgG4-S228P-FALA, kappa
On to B15, for which, in experiment [4], the Kd stood at 5.74 nM, the koff turned out to be 0.00282 s⁻¹ and the kon was 491000 M⁻¹ s⁻¹.

B16: 117_30DA (IgG4) (antibody, V domains shown)
VH: EVQLVESGGGLVQPGGSLRLSCAASGFTIDAFGIHWVRQAPGKGLEWVAWIAPYGGYTYYADSVKGRFTISADTSKNTAYLQMNSLRAEDTAVYYCARSFFGYFDYWGQGTLVTVSS
VL: DIQMTQSPSSLSASVGDRVTITCRASQDVSNWVAWYQQKPGKAPKLLISYATSLYSGVPSRFSGSGSGTDFTLTISSLQPEDFATYYCQQHSNAPLTFGQGTKVEIKR
notes: Human IgG4-S228P-FALA, kappa
In the case of B16, in experiment [4], the Kd is 3.91 nM, the koff stood at 0.00133 s⁻¹ and the kon is 339000 M⁻¹ s⁻¹.
